Measured values published in the Immune Epitope Database (IEDB).

Experiments:
HLA-B*07:02 [1] = test: IEDB peptide-MHC binding, purified MHC/competitive/radioactivity; ≥ and ≤ were set here for values at or beyond the usual limits of such assays
HLA-A*02:01 = test: as above; details: source organism: Plasmodium falciparum
HLA-B*07:02 [2] = test: IEDB peptide-MHC binding, purified MHC/competitive/radioactivity; filed as Kd, often an IC50 or EC50 that approximates it; ≥ and ≤ were set here for values at or beyond the usual limits of such assays; details: source organism: Human immunodeficiency virus 1
[3] = source organism: Human immunodeficiency virus 1

CPKVSFEPI
IC50 (HLA-B*07:02 [1]; [3]): 127 nM

GLLGVVSTV
IC50 (HLA-A*02:01): 24.3 nM

GPKVKQWPI
Kd (HLA-B*07:02 [2]): 5570 nM

HPVHAGPIA
IC50 (HLA-B*07:02 [1]; [3]): 57 nM

ILSVSSFLFV
IC50 (HLA-A*02:01): 208 nM

IPIHYCAPA
IC50 (HLA-B*07:02 [1]; [3]): 445 nM

QPRAPIRPIPT
IC50 (HLA-B*07:02 [1]; source organism: Human herpesvirus 4 strain B95-8): 110 nM

RPPIFIRRL
IC50 (HLA-B*07:02 [1]; source organism: human gammaherpesvirus 4): 21 nM

TPGIRYQYNI
Kd (HLA-B*07:02 [2]): 8620 nM

TPYAGEPAPF
IC50 (HLA-B*07:02 [1]; source organism: Plasmodium falciparum): 31 nM

WPLTEEKIKI
Kd (HLA-B*07:02 [2]): 19400 nM

YPLASLRSLF
IC50 (HLA-B*07:02 [1]; [3]): 408 nM
